According to patent publication US20130040853A1, “Context Specific Genetic Screen Platform to Aid in Gene Discovery and Target Validation” (Dana-Farber Cancer Institute Inc., priority 2010, published 2013):

Experiments:
[1] = tested on: HMEL-BRAF^V600E melanocytes; test: In vivo functional genetic screen and secondary validation: kinase-transduced HMEL cells implanted in nude mice; design: species or system human; conditions: for Tumorigenicity in vivo: WT or mutant kinase expressed individually
Description: A ‘cancer-kinase’ library was constructed containing sequence-verified ORFs in a lentiviral vector for 110 of the 120 kinases reported to sustain somatic driver mutations in diverse human cancers. This library was pooled and introduced into a human HMEL-BRAF^V600E melanocyte model system engineered with BRAF^V600E and TERT as well as p53DD and CDK4-R24C to inactivate the […] pathways, respectively. The HMEL-BRAF^V600E melanocyte profile, while representing the most common clinically-definable genetic profile in human melanoma, is insufficient to drive efficient melanoma formation following orthotopic transplantation in the skin (penetrance of 10% and latency of 26 weeks). In contrast, 40% of HMEL-BRAF^V600E melanocytes transduced with the cancer kinase pools developed tumors with an average latency of 13 weeks (range 10-18 weeks).
In vivo functional genetic screens: Lentivirus were prepared by co-transfecting 293T cells with individual vector backbones and standard virus packaging systems for subsequent collection of viral supernatants. Viral supernatants were then pooled randomly to generate 8 pools of high-titer lentiviral stocks. HMEL cells were transduced with either GFP control lentivirus or each representative lentiviral pool in the presence of 8 ug/ml polybrene (Company). Infected cells were expanded, mixed 1:1 with Matrigel (BD Bioscience) and then subcutaneously implanted in female nude animals (Taconic) at 1×10^6 cells per site on both flanks. Primary INK4A/ARF−/−, PTEN−/− murine astrocytes were transduced with either GFP control lentivirus or each representative lentiviral pool in the presence of 8 ug/ml polybrene (Company). Infected cells were expanded implanted into the brain parenchyma of female SCID mice (Charles River). Briefly, SCID mice were anesthetized and placed into a stereotactic apparatus equipped with a Z axis (Stoelting). A small hole was bored in the skull 0.5 mm anterior and 3.0 mm lateral to the bregma using a dental drill. Twenty thousand cells in Hank's Buffered Salt Solution were injected into the right caudate nucleus 2 mm below the surface of the brain using a 10-ul Hamilton syringe with an unbeveled 30 gauge needle. The scalp was closed using a 9-mm Autoclip Applier. Animals were followed daily for the development of subQ tumors or signs of neurological deficits. Animals were sacrifice, tumors were harvested, genomic DNA was prepared and kinases expressed in each tumor identified using PCR sequencing using plasmid specific CMV and V5 primers. Expression of each kinase was further validated by western blot analysis. Kinases expressed in each tumor were then enlisted into secondary validation screens in which stable HMEL or mouse astrocyte lines were generated expressing each kinase individually. Cells were again expanded and then implanted in female nude or SCID animals. All mice were housed and treated in accordance with protocols approved by the institutional care and use committees for animal research at the Dana-Farber Cancer Institute.

cJUN phosphorylation = test: JNK Kinase Assay (WT and mutant kinases immunoprecipitated from HMEL cells); assay type: biochemical, human; conditions: as reported by level of cJUN phosphorylation; for MAP2K4/7 first incubated with inactive JNK2

Row | Molecule | Tumorigenicity in vivo [1] | Kinase Activity (cJUN phosphorylation) | also measured
1 | JNK1 WT: wild type MAPK8/JNK1 kinase ORF expressed in HMEL cells (protein, UniProt P45983 1-427, looked up) Mitogen-activated protein …: MSRSKRDNNFYSVEIGDSTFTVLKRYQNLKPIGSGAQGIVCAAYDAILERNVAIKKLSRPFQNQTHAKRAYRELVLMKCVNHKNIIGLLNVFTPQKSLEEFQDVYIVMELMDANLCQVIQMELDHERMSYLLYQMLCGIKHLHSAGIIHRDLKPSNIVVKSDCTLKILDFGLARTAGTSFMMTPYVVTRYYRAPEVILGMGYKENVDLWSVGCIMGEMVCHKILFPGRDYIDQWNKVIEQLGTPCPEFMKKLQPTVRTYVENRPKYAGYSFEKLFPDVLFPADSEHNKLKASQARDLLSKMLVIDASKRISVDEALQHPYINVWYDPSEAEAPPPKIPDKQLDEREHTIEEWKELIYKEVMDLEERTKNGVIRGQPSPLGAAVINGSQHPSSSSSVNDVSSMSTDPTLASDTDSSLEAAAGPLGCCR | YES | – | tumor generation individually in secondary HMEL screens ([1]; kinase transduced individually): did not generate tumors
2 | MAP2K4 WT: wild type MAP2K4 kinase ORF expressed from lentiviral vector in HMEL cells (protein, UniProt P45985 1-399, looked up, full-length, wild type MAP2K4 kinase ORF expressed from lentiviral vector in HMEL cells) MAAPSPSGGGGSGGGSGSGTPGPVGSPAPGHPAVSSMQGKRKALKLNFANPPFKSTARFTLNPNPTGVQNPHIERLRTHSIESSGKLKISPEQHWDFTAEDLKDLGEIGRGAYGSVNKMVHKPSGQIMAVKRIRSTVDEKEQKQLLMDLDVVMRSSDCPYIVQFYGALFREGDCWICMELMSTSFDKFYKYVYSVLDDVIPEEILGKITLATVKALNHLKENLKIIHRDIKPSNILLDRSGNIKLCDFGISGQLVDSIAKTRDAGCRPYMAPERIDPSASRQGYDVRSDVWSLGITLYELATGRFPYPKWNSVFDQLTQVVKGDPPQLSNSEEREFSPSFINFVNLCLTKDESKRPKYKELLKHPFILMYEERAVEVACYVCKILDQMPATPSSPMYVD | YES | 1X | tumor penetrance ([1]; secondary validation, kinase transduced individually into HMEL-BRAF^V600E melanocytes): 30%
3 | JNK2 p.V13M: JNK2 somatic mutant, observed in colorectal adenocarcinoma (protein, UniProt P45984 1-424, looked up, variant V13M) Mitogen-activated protein …: MSDSKCDSQFYSMQVADSTFTVLKRYQQLKPIGSGAQGIVCAAFDTVLGINVAVKKLSRPFQNQTHAKRAYRELVLLKCVNHKNIISLLNVFTPQKTLEEFQDVYLVMELMDANLCQVIHMELDHERMSYLLYQMLCGIKHLHSAGIIHRDLKPSNIVVKSDCTLKILDFGLARTACTNFMMTPYVVTRYYRAPEVILGMGYKENVDIWSVGCIMGELVKGCVIFQGTDHIDQWNKVIEQLGTPSAEFMKKLQPTVRNYVENRPKYPGIKFEELFPDWIFPSESERDKIKTSQARDLLSKMLVIDPDKRISVDEALRHPYITVWYDPAEAEAPPPQIYDAQLEEREHAIEEWKELIYKEVMDWEERSKNGVVKDQPSDAAVSSNATPSQSSSINDISSMSTEQTLASDTDSSLDASTGPLEGCR | YES | – | –
4 | JNK2 p.K56N: JNK2 somatic mutant, observed in head & neck squamous cell (protein, UniProt P45984 1-424, looked up, variant K56N) Mitogen-activated protein …: MSDSKCDSQFYSVQVADSTFTVLKRYQQLKPIGSGAQGIVCAAFDTVLGINVAVKNLSRPFQNQTHAKRAYRELVLLKCVNHKNIISLLNVFTPQKTLEEFQDVYLVMELMDANLCQVIHMELDHERMSYLLYQMLCGIKHLHSAGIIHRDLKPSNIVVKSDCTLKILDFGLARTACTNFMMTPYVVTRYYRAPEVILGMGYKENVDIWSVGCIMGELVKGCVIFQGTDHIDQWNKVIEQLGTPSAEFMKKLQPTVRNYVENRPKYPGIKFEELFPDWIFPSESERDKIKTSQARDLLSKMLVIDPDKRISVDEALRHPYITVWYDPAEAEAPPPQIYDAQLEEREHAIEEWKELIYKEVMDWEERSKNGVVKDQPSDAAVSSNATPSQSSSINDISSMSTEQTLASDTDSSLDASTGPLEGCR | YES | – | –
5 | MAP2K4 p.S251N: MAP2K4 somatic mutant identified in a melanoma (protein, UniProt P45985 2-399, looked up, variant S251N) Dual specificity …: AAPSPSGGGGSGGGSGSGTPGPVGSPAPGHPAVSSMQGKRKALKLNFANPPFKSTARFTLNPNPTGVQNPHIERLRTHSIESSGKLKISPEQHWDFTAEDLKDLGEIGRGAYGSVNKMVHKPSGQIMAVKRIRSTVDEKEQKQLLMDLDVVMRSSDCPYIVQFYGALFREGDCWICMELMSTSFDKFYKYVYSVLDDVIPEEILGKITLATVKALNHLKENLKIIHRDIKPSNILLDRSGNIKLCDFGINGQLVDSIAKTRDAGCRPYMAPERIDPSASRQGYDVRSDVWSLGITLYELATGRFPYPKWNSVFDQLTQVVKGDPPQLSNSEEREFSPSFINFVNLCLTKDESKRPKYKELLKHPFILMYEERAVEVACYVCKILDQMPATPSSPMYVD | – | 1X | –
6 | MAP2K4 p.A279T: MAP2K4 somatic driver mutant, observed in colorectal adenocarcinoma (protein, UniProt P45985 2-399, looked up, variant A279T) Dual specificity …: AAPSPSGGGGSGGGSGSGTPGPVGSPAPGHPAVSSMQGKRKALKLNFANPPFKSTARFTLNPNPTGVQNPHIERLRTHSIESSGKLKISPEQHWDFTAEDLKDLGEIGRGAYGSVNKMVHKPSGQIMAVKRIRSTVDEKEQKQLLMDLDVVMRSSDCPYIVQFYGALFREGDCWICMELMSTSFDKFYKYVYSVLDDVIPEEILGKITLATVKALNHLKENLKIIHRDIKPSNILLDRSGNIKLCDFGISGQLVDSIAKTRDAGCRPYMAPERIDPSTSRQGYDVRSDVWSLGITLYELATGRFPYPKWNSVFDQLTQVVKGDPPQLSNSEEREFSPSFINFVNLCLTKDESKRPKYKELLKHPFILMYEERAVEVACYVCKILDQMPATPSSPMYVD | – | <1X | –
7 | MAP2K4 p.N2341: MAP2K4 somatic driver mutant, observed in ovarian serous carcinoma (protein, UniProt P45985 2-399, looked up, variant N234I) Dual specificity …: AAPSPSGGGGSGGGSGSGTPGPVGSPAPGHPAVSSMQGKRKALKLNFANPPFKSTARFTLNPNPTGVQNPHIERLRTHSIESSGKLKISPEQHWDFTAEDLKDLGEIGRGAYGSVNKMVHKPSGQIMAVKRIRSTVDEKEQKQLLMDLDVVMRSSDCPYIVQFYGALFREGDCWICMELMSTSFDKFYKYVYSVLDDVIPEEILGKITLATVKALNHLKENLKIIHRDIKPSIILLDRSGNIKLCDFGISGQLVDSIAKTRDAGCRPYMAPERIDPSASRQGYDVRSDVWSLGITLYELATGRFPYPKWNSVFDQLTQVVKGDPPQLSNSEEREFSPSFINFVNLCLTKDESKRPKYKELLKHPFILMYEERAVEVACYVCKILDQMPATPSSPMYVD | – | 2.5X^ | –
8 | MAP2K7 p.R162C: MAP2K7 somatic mutant, observed in colorectal adenocarcinoma (protein, UniProt O14733 2-419, looked up, variant R162C) Dual specificity …: AASSLEQKLSRLEAKLKQENREARRRIDLNLDISPQRPRPTLQLPLANDGGSRSPSSESSPQHPTPPARPRHMLGLPSTLFTPRSMESIEIDQKLQEIMKQTGYLTIGGQRYQAEINDLENLGEMGSGTCGQVWKMRFRKTGHVIAVKQMRRSGNKEENKCILMDLDVVLKSHDCPYIVQCFGTFITNTDVFIAMELMGTCAEKLKKRMQGPIPERILGKMTVAIVKALYYLKEKHGVIHRDVKPSNILLDERGQIKLCDFGISGRLVDSKAKTRSAGCAAYMAPERIDPPDPTKPDYDIRADVWSLGISLVELATGQFPYKNCKTDFEVLTKVLQEEPPLLPGHMGFSGDFQSFVKDCLTKDHRKRPKYNKLLEHSFIKRYETLEVDVASWFKDVMAKTESPRTSGVLSQPHLPFFR | – | 1X | –
9 | MAP2K7 p.R162H: MAP2K7 somatic mutant, observed in colorectal adenocarcinoma (protein, UniProt O14733 2-419, looked up, variant R162H) Dual specificity …: AASSLEQKLSRLEAKLKQENREARRRIDLNLDISPQRPRPTLQLPLANDGGSRSPSSESSPQHPTPPARPRHMLGLPSTLFTPRSMESIEIDQKLQEIMKQTGYLTIGGQRYQAEINDLENLGEMGSGTCGQVWKMRFRKTGHVIAVKQMRRSGNKEENKHILMDLDVVLKSHDCPYIVQCFGTFITNTDVFIAMELMGTCAEKLKKRMQGPIPERILGKMTVAIVKALYYLKEKHGVIHRDVKPSNILLDERGQIKLCDFGISGRLVDSKAKTRSAGCAAYMAPERIDPPDPTKPDYDIRADVWSLGISLVELATGQFPYKNCKTDFEVLTKVLQEEPPLLPGHMGFSGDFQSFVKDCLTKDHRKRPKYNKLLEHSFIKRYETLEVDVASWFKDVMAKTESPRTSGVLSQPHLPFFR | – | 1X | –
